Results: the supplement of paper PMC9112550, “Optimization of the antimicrobial peptide Bac7 by deep mutational scanning” (BMC Biology, 2022)

Tested on: Escherichia coli TOP10
Experiment: shrunken log2 fold change of peptide-encoding DNA abundance (4.5 h post-induction vs induction); higher = less antimicrobial activity (less host growth inhibition)
Conditions: time post-induction: 4.5 h; library: site-saturation at positions 5, 18, 19, 20
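Further: peptides expressed intracellularly from a pBAD plasmid library in pooled LB shake-flask culture, induced with 0.3% L-arabinose, DNA abundance read by NGS, three biological replicates, DESeq2 with apeglm shrinkage.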

Sequence	shrunken log2 fold change
RRIRSRPPRLPRPRPRPPSDPRP	0.385
RRIRSRPPRLPRPRPRPPSFPRP	0.0731
RRIRSRPPRLPRPRPRPPSSPRP	-0.0711
RRIRSRPPRLPRPRPRPPTIPRP	0.0521
RRIRSRPPRLPRPRPRPPTMPRP	-0.00342
RRIRSRPPRLPRPRPRPPTVPRP	0.153
RRIRSRPPRLPRPRPRPPVCPRP	0.311
RRIRSRPPRLPRPRPRPPVGPRP	0.457
RRIRSRPPRLPRPRPRPPVSPRP	0.308
RRIRSRPPRLPRPRPRPPYCPRP	-0.031
RRIRSRPPRLPRPRPRPPYMPRP	-0.316
RRIRSRPPRLPRPRPRPPYVPRP	-0.215
RRIRSRPPRLPRPRPRPQAKPRP	0.0225
RRIRSRPPRLPRPRPRPQCYPRP	-0.569
RRIRSRPPRLPRPRPRPQDCPRP	-0.261
RRIRSRPPRLPRPRPRPQDMPRP	0.035
RRIRSRPPRLPRPRPRPQEHPRP	-0.112
RRIRSRPPRLPRPRPRPQEWPRP	0.0425
RRIRSRPPRLPRPRPRPQGKPRP	0.0304
RRIRSRPPRLPRPRPRPQGSPRP	-0.00511
RRIRSRPPRLPRPRPRPQGYPRP	-0.139
RRIRSRPPRLPRPRPRPQHHPRP	-0.466
RRIRSRPPRLPRPRPRPQIEPRP	0.0319
RRIRSRPPRLPRPRPRPQKYPRP	-0.428
RRIRSRPPRLPRPRPRPQLHPRP	-0.175

Sequence	shrunken log2 fold change
RRIRSRPPRLPRPRPRPQLNPRP	-0.248
RRIRSRPPRLPRPRPRPQMAPRP	0.0615
RRIRSRPPRLPRPRPRPQMCPRP	-0.724
RRIRSRPPRLPRPRPRPQMLPRP	-0.195
RRIRSRPPRLPRPRPRPQNPPRP	-0.296
RRIRSRPPRLPRPRPRPQPLPRP	0.256
RRIRSRPPRLPRPRPRPQQAPRP	0.0031
RRIRSRPPRLPRPRPRPQQCPRP	-0.146
RRIRSRPPRLPRPRPRPQQIPRP	0.153
RRIRSRPPRLPRPRPRPQQKPRP	-0.138
RRIRSRPPRLPRPRPRPQQMPRP	-0.155
RRIRSRPPRLPRPRPRPQRAPRP	0.123
RRIRSRPPRLPRPRPRPQRLPRP	-0.187
RRIRSRPPRLPRPRPRPQRNPRP	0.104
RRIRSRPPRLPRPRPRPQSDPRP	-0.0499
RRIRSRPPRLPRPRPRPQTSPRP	-0.157
RRIRSRPPRLPRPRPRPQVPPRP	0.299
RRIRSRPPRLPRPRPRPQVQPRP	0.374
RRIRSRPPRLPRPRPRPQWEPRP	0.022
RRIRSRPPRLPRPRPRPQYLPRP	-0.683
RRIRSRPPRLPRPRPRPRAAPRP	0.504
RRIRSRPPRLPRPRPRPRACPRP	0.403
RRIRSRPPRLPRPRPRPRAIPRP	0.134
RRIRSRPPRLPRPRPRPRAMPRP	0.107
RRIRSRPPRLPRPRPRPRCLPRP	0.0297

Sequence	shrunken log2 fold change
RRIRSRPPRLPRPRPRPRCWPRP	0.329
RRIRSRPPRLPRPRPRPRDCPRP	0.686
RRIRSRPPRLPRPRPRPRDEPRP	0.242
RRIRSRPPRLPRPRPRPREYPRP	-0.0557
RRIRSRPPRLPRPRPRPRFIPRP	0.00415
RRIRSRPPRLPRPRPRPRFYPRP	-0.642
RRIRSRPPRLPRPRPRPRGHPRP	-0.0222
RRIRSRPPRLPRPRPRPRGLPRP	0.461
RRIRSRPPRLPRPRPRPRGRPRP	0.375
RRIRSRPPRLPRPRPRPRKPPRP	0.0197
RRIRSRPPRLPRPRPRPRPCPRP	0.137
RRIRSRPPRLPRPRPRPRPRPRP	0.815
RRIRSRPPRLPRPRPRPRQFPRP	0.165
RRIRSRPPRLPRPRPRPRQQPRP	0.0352
RRIRSRPPRLPRPRPRPRSCPRP	0.108
RRIRSRPPRLPRPRPRPRSRPRP	0.0341
RRIRSRPPRLPRPRPRPRVDPRP	0.0568
RRIRSRPPRLPRPRPRPRVGPRP	0.578
RRIRSRPPRLPRPRPRPRWCPRP	0.051
RRIRSRPPRLPRPRPRPRWVPRP	0.218
RRIRSRPPRLPRPRPRPRYSPRP	-0.232
RRIRSRPPRLPRPRPRPRYWPRP	0.0181
RRIRSRPPRLPRPRPRPSAPPRP	0.287
RRIRSRPPRLPRPRPRPSCMPRP	-0.129
RRIRSRPPRLPRPRPRPSCRPRP	-0.0379

Sequence	shrunken log2 fold change
RRIRSRPPRLPRPRPRPSDLPRP	-0.254
RRIRSRPPRLPRPRPRPSDPPRP	-0.397
RRIRSRPPRLPRPRPRPSECPRP	-0.211
RRIRSRPPRLPRPRPRPSEIPRP	0.0398
RRIRSRPPRLPRPRPRPSEWPRP	0.0157
RRIRSRPPRLPRPRPRPSFFPRP	-0.211
RRIRSRPPRLPRPRPRPSGYPRP	-0.443
RRIRSRPPRLPRPRPRPSHWPRP	0.337
RRIRSRPPRLPRPRPRPSILPRP	-0.235
RRIRSRPPRLPRPRPRPSINPRP	-0.567
RRIRSRPPRLPRPRPRPSIQPRP	-0.497
RRIRSRPPRLPRPRPRPSKKPRP	-0.334
RRIRSRPPRLPRPRPRPSLKPRP	0.0541
RRIRSRPPRLPRPRPRPSMCPRP	-0.146
RRIRSRPPRLPRPRPRPSNGPRP	-0.0205
RRIRSRPPRLPRPRPRPSPDPRP	-0.218
RRIRSRPPRLPRPRPRPSPGPRP	0.312
RRIRSRPPRLPRPRPRPSPVPRP	-0.0362
RRIRSRPPRLPRPRPRPSQTPRP	-0.128
RRIRSRPPRLPRPRPRPSRIPRP	-0.106
RRIRSRPPRLPRPRPRPSRSPRP	0.179
RRIRSRPPRLPRPRPRPSSIPRP	-0.379
RRIRSRPPRLPRPRPRPSVHPRP	-0.352
RRIRSRPPRLPRPRPRPSVTPRP	-0.171
RRIRSRPPRLPRPRPRPSYYPRP	-0.529

Sequence	shrunken log2 fold change
RRIRSRPPRLPRPRPRPTAKPRP	0.528
RRIRSRPPRLPRPRPRPTCAPRP	0.301
RRIRSRPPRLPRPRPRPTCFPRP	0.284
RRIRSRPPRLPRPRPRPTCTPRP	0.342
RRIRSRPPRLPRPRPRPTDMPRP	0.0156
RRIRSRPPRLPRPRPRPTDNPRP	-0.249
RRIRSRPPRLPRPRPRPTDVPRP	0.0781
RRIRSRPPRLPRPRPRPTEPPRP	0.161
RRIRSRPPRLPRPRPRPTEVPRP	-0.125
RRIRSRPPRLPRPRPRPTFEPRP	0.0262
RRIRSRPPRLPRPRPRPTFLPRP	-0.0423
RRIRSRPPRLPRPRPRPTGSPRP	0.0396
RRIRSRPPRLPRPRPRPTKLPRP	0.0448
RRIRSRPPRLPRPRPRPTLHPRP	0.147
RRIRSRPPRLPRPRPRPTLNPRP	-0.0269
RRIRSRPPRLPRPRPRPTLPPRP	0.212
RRIRSRPPRLPRPRPRPTNEPRP	0.308
RRIRSRPPRLPRPRPRPTNGPRP	0.0899
RRIRSRPPRLPRPRPRPTNVPRP	-0.358
RRIRSRPPRLPRPRPRPTPAPRP	0.299
RRIRSRPPRLPRPRPRPTQCPRP	0.23
RRIRSRPPRLPRPRPRPTSRPRP	-0.0504
RRIRSRPPRLPRPRPRPTTAPRP	0.155
RRIRSRPPRLPRPRPRPTVQPRP	-0.204
RRIRSRPPRLPRPRPRPTVSPRP	-0.221

Sequence	shrunken log2 fold change
RRIRSRPPRLPRPRPRPTVWPRP	0.185
RRIRSRPPRLPRPRPRPTWVPRP	0.0759
RRIRSRPPRLPRPRPRPTWYPRP	-0.123
RRIRSRPPRLPRPRPRPTYLPRP	-0.399
RRIRSRPPRLPRPRPRPTYNPRP	-0.765
RRIRSRPPRLPRPRPRPVAGPRP	0.0927
RRIRSRPPRLPRPRPRPVCGPRP	0.548
RRIRSRPPRLPRPRPRPVDRPRP	0.0715
RRIRSRPPRLPRPRPRPVDTPRP	-0.103
RRIRSRPPRLPRPRPRPVEQPRP	-0.0605
RRIRSRPPRLPRPRPRPVFKPRP	-0.29
RRIRSRPPRLPRPRPRPVFLPRP	-0.131
RRIRSRPPRLPRPRPRPVFTPRP	0.00672
RRIRSRPPRLPRPRPRPVGGPRP	0.433
RRIRSRPPRLPRPRPRPVGHPRP	-0.376
RRIRSRPPRLPRPRPRPVGRPRP	0.65
RRIRSRPPRLPRPRPRPVGTPRP	-0.0487
RRIRSRPPRLPRPRPRPVGVPRP	0.0685
RRIRSRPPRLPRPRPRPVIEPRP	-0.186
RRIRSRPPRLPRPRPRPVIHPRP	-0.127
RRIRSRPPRLPRPRPRPVIMPRP	-0.36
RRIRSRPPRLPRPRPRPVKHPRP	0.124
RRIRSRPPRLPRPRPRPVMDPRP	-0.496
RRIRSRPPRLPRPRPRPVMPPRP	-0.103
RRIRSRPPRLPRPRPRPVNQPRP	-0.155
